According to the supplement of paper PMC9170038:

Test system: MS2 coat protein
Experiment: apparent KD of MS2 coat protein; designed switch direction (-1 OFF switch, 1 ON switch): -1; higher = weaker reporter binding
Outline: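 Designed RNA switches sharing common flanks were transcribed on Illumina chips by stalled E. coli RNA polymerase. They were titrated with SNAP-549-labelled MS2 coat protein, from 0.7 or 1.5 nM doubling to 3 µM, in Tris-HCl pH 7.5 buffer with KCl, MgCl2, BSA, DTT, tRNA and Tween-20. Titrations ran without input, with 200 uM small-molecule ligand, or with an oligonucleotide input. The apparent KD of each design is the median over its clusters, after curve-fitting of normalised cluster fluorescence.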

[1] = input ligand: microRNA oligo, concentration not stated
[2] = Eterna round: R95, input ligand: microRNA oligo, concentration not stated
[3] = Eterna round: R95, input ligand: FMN 200 uM
[4] = Eterna round: R95, input ligand: none

Sequence	apparent KD of MS2 coat protein (input ligand: FMN 200 uM) [µM]	apparent KD of MS2 coat protein [1] [µM]	apparent KD of MS2 coat protein (input ligand: none) [µM]	apparent KD of MS2 coat protein [2] [µM]	further results
UUAGGCUGAAGAUCAAUUAAUUAACAUGAGGAUCACCCAUGUAAGGAUAUCAGCUCGUGUAGAGCUGAGAAGGUACAUGCAGCC [ExNG3/18-A3] (Eterna round: R96, puzzle: Exclusion NG 3)	0.436	0.135	0.101	–	–
UUAUAAAGAGUGAGGAUAUGCUGGUCCAUGGAUCAGCAGAAGGCACAUGAGGAUCACCCAUGUAAAAUAAUAUU [Mat - Exclusion 4 - JL Mod - D41] (puzzle: Brourd's mod of Exclusion 4)	–	–	–	0.0187	–
UUAUACGCUGAGGAUAUCAUCACUGAGAGGUGAUGAGAAGGCGGUACAUGAGGAUCACCCAUGUCUAUGGGCAG [Ex-6 Malc#21] (puzzle: Exclusion 6)	–	–	–	0.187	–
UUAUACGCUGAGGAUAUCUUCACUGAAAAGUGAAGAGAAGGCGGUACAUGAGGAUCACCCAUGUCUAUGGGCAG [Ex-6 Malc#19] (puzzle: Exclusion 6)	–	–	–	0.388	apparent KD of MS2 coat protein [3]: 0.381 µM; apparent KD of MS2 coat protein [4]: 0.478 µM
UUAUACGUUGAGGAUAUGCGACUUUUUUUAGUUGUAGAAGGCGAUACAUGAGGAUCACCCAUGUUUAUGGGCAU [LRO-Ex6-11] (puzzle: Exclusion 6)	–	–	–	0.137	–
UUAUAUAAUGUGAGGAUAUGCUGGUCCUUAGAUCAGCAGAAGGCACAUGAGGAUCACCCAUGUAGUAAAUUUUA [Mat - Exclusion 4 - JL Mod - D11] (puzzle: Brourd's mod of Exclusion 4)	–	–	–	0.0153	apparent KD of MS2 coat protein [3]: 0.025 µM; apparent KD of MS2 coat protein [4]: 0.0168 µM
UUAUAUAGAGUGAGGAUAUGCUGGUCCUUGGAUCAGCAGAAGGCACAUGAGGAUCACCCAUGUAAUAUAUUAUU [Mat - Exclusion 4 - JL Mod - D37] (puzzle: Brourd's mod of Exclusion 4)	–	–	–	0.0211	–
UUAUGUAAUGUAGGAUAUCGGUCAGUUUCUGAUCGAGAAGGACAUGAGGAUCACCCAUGUAAGGCUACCGGUUUCUGGUGGCCU [JL ENG1 3.51] (Eterna round: R96, puzzle: Exclusion NG 1)	0.137	0.0207	0.0285	–	–
UUAUUACAAGCAAGAUCUCACAUGAGGAUCACCCAUGUGCUCGUCUUAUAAGGUACUGUGACGAAAGUCACGGUACC [Eli 100 v1] (Eterna round: R97, puzzle: Sensor, turn-off variant 1)	0.0148	–	0.0173	–	–
UUAUUACGAGGAUAUCGUUUUUAUCACAUGAGGAUCACCCAUGUAAUUUAUGUUUCGUUUCGAGAAGGCGUUUGUU [JR_E5_Sub067] (puzzle: Exclusion 5)	–	–	–	0.0233	–
UUAUUAUAUGAAGGAUAUACUUAACAUGAGGAUCACCCAUGUGGUGUUGUGAGUGAGUGAGUUUAGUAGAAGGUCAAGUAUUUU [JMF's solution 51] (Eterna round: R96, puzzle: Exclusion NG 2)	0.417	0.494	0.341	–	–
UUAUUAUAUGUAGGAUAUGCAUAUUAUUAUUAUGCAGAAGGACAUGAGGAUCACCCAUGUAUAUUAUUAUUAUAUAUUAUAUAU [Title] (Eterna round: R96, puzzle: Exclusion NG 1)	–	0.0236	–	–	–
UUAUUAUAUGUAGGAUAUGCAUAUUAUUAUUAUGCAGAAGGACAUGAGGAUCACCCAUGUAUAUUGUUGUUAUGUAUUAUAUAU [Title] (Eterna round: R96, puzzle: Exclusion NG 1)	0.0404	0.0241	0.0313	–	–
UUCACAUGGACAUGAGAUCACAUGAGGAUCACCCAUGUGAAUAACAAGCUUUUUGCUCGUCUUAUGUCCAAUAAUAG [Stov1/14-C2] (Eterna round: R97, puzzle: Sensor, turn-off variant 1)	0.0137	–	0.0126	–	–
UUCAGACAUGAGGAUCACCCAUGUGAGGAUAUGAUGCGAUCGUCGAAAGACGAUAGCAUCAGAAGGCACGUAUG [Fiskers Ex 1 - 16] (puzzle: Exclusion 1)	–	–	–	0.0978	–
